Results from patent publication US20240192215A1 (E AND S HEALTHCARE, published 2024).

T1: Peptide_013 (human)
T1 construct: 15-mer on microarray; not native form, includes recombinant insert region
T1 peptide: HHHHHHVKQIESKTA

T2: Peptide_015 (human)
T2 construct: 15-mer on microarray; not native form, includes recombinant insert region
T2 peptide: HHHHVKQIESKTAFQ

T3: Peptide_023 (human)
T3 construct: 15-mer of hTrx1 on microarray
T3 peptide: ESKTAFQEALDAAGD

T4: Peptide_025 (human)
T4 construct: 15-mer of hTrx1 on microarray
T4 peptide: KTAFQEALDAAGDKL

T5: Peptide_045 (human)
T5 construct: 15-mer of hTrx1 on microarray
T5 peptide: SATWCGPCKMIKPFF

T6: Peptide_092 (human)
T6 construct: 15-mer of hTrx1 on microarray
T6 peptide: PTFQFFKKGQKVGEF

T7: human thioredoxin-1 (Trx1) (human, UniProt P10599 1-105)
T7 construct: also called hTrx1; hTRX1
T7 sequence (looked up): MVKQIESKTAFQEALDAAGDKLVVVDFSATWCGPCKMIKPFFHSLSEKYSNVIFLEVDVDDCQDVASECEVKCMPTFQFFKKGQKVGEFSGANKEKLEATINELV

T8: Peptide_046 (human)
T8 construct: 15-mer of hTrx1 on microarray
T8 peptide: ATWCGPCKMIKPFFH

T9: Peptide_047 (human)
T9 construct: 15-mer of hTrx1 on microarray
T9 peptide: TWCGPCKMIKPFFHS

T10: Peptide_048 (human)
T10 construct: 15-mer of hTrx1 on microarray
T10 peptide: WCGPCKMIKPFFHSL

T11: Peptide_049 (human)
T11 construct: 15-mer of hTrx1 on microarray
T11 peptide: CGPCKMIKPFFHSLS

T12: Peptide_050 (human)
T12 construct: 15-mer of hTrx1 on microarray
T12 peptide: GPCKMIKPFFHSLSE

T13: Peptide_052 (human)
T13 construct: 15-mer of hTrx1 on microarray
T13 peptide: CKMIKPFFHSLSEKY

T14: Peptide_053 (human)
T14 construct: 15-mer of hTrx1 on microarray
T14 peptide: KMIKPFFHSLSEKYS

T15: Peptide_054 (human)
T15 construct: 15-mer of hTrx1 on microarray
T15 peptide: MIKPFFHSLSEKYSN

T16: Peptide_055 (human)
T16 construct: 15-mer of hTrx1 on microarray
T16 peptide: IKPFFHSLSEKYSNV

T17: Peptide_056 (human)
T17 construct: 15-mer of hTrx1 on microarray
T17 peptide: KPFFHSLSEKYSNVI

T18: Peptide_057 (human)
T18 construct: 15-mer of hTrx1 on microarray
T18 peptide: PFFHSLSEKYSNVIF

T19: Peptide_004 (human)
T19 construct: 15-mer on microarray; not native form, recombinant insert region
T19 peptide: AADVHSQHHHHHHHH

T20: Peptide_005 (human)
T20 construct: 15-mer on microarray; not native form, recombinant insert region
T20 peptide: ADVHSQHHHHHHHHV


Legend:
Peptide_013 = biological target: T1, Peptide_013; test: peptide microarray, 1 ug/mL
Protocol: (§1) 5, 1, 0.2, 0.04, 0.008 and 0.0016 μg/mL serial dilutions were incubated on a single multi-well microarray slide at 30° C. for 1 hour. The slide includes 21 individual mini-arrays (one mini-array per sample dilution).
(§2) DyLight 650 was used as a label. False-positive binding to a peptide was evaluated by performing one additional control incubation in which only a secondary antibody was applied on the same microarray slide. Before performing each step, the microarrays were washed with a washing buffer.

Peptide_015 = biological target: T2, Peptide_015; test: peptide microarray, 1 ug/mL
Protocol: as §1, §2

Peptide_023 = biological target: T3, Peptide_023; test: peptide microarray, 1 ug/mL
Protocol: as §1, §2

Peptide_025 = biological target: T4, Peptide_025; test: peptide microarray, 1 ug/mL
Protocol: as §1, §2

Peptide_045 = biological target: T5, Peptide_045; test: peptide microarray, 1 ug/mL
Protocol: as §1, §2

Peptide_092 = biological target: T6, Peptide_092; test: peptide microarray, 1 ug/mL
Protocol: as §1, §2

[1] = biological target: T7, human thioredoxin-1 (Trx1); test: ELISA on 200 ng coated hTrx1
Protocol: A reaction solution was removed, followed by washing five times with 200 μL of 1×PBST. […] A reaction solution was removed, and washed five times with 200 μL of 1×PBST. 100 μL of a color reagent was dispensed into each well, and after a 10-minute reaction, 50 μL of 2.5M H₂SO₄ was dispensed into each well. After color development, the extent of the color development was assessed using an ELISA reader.

Peptide_046 [2] = biological target: T8, Peptide_046; test: peptide microarray, 0.2 ug/mL
Protocol: as §1, §2

Peptide_047 [3] = biological target: T9, Peptide_047; test: peptide microarray, 0.2 ug/mL
Protocol: as §1, §2

Peptide_048 [4] = biological target: T10, Peptide_048; test: peptide microarray, 0.2 ug/mL
Protocol: as §1, §2

Peptide_049 [5] = biological target: T11, Peptide_049; test: peptide microarray, 0.2 ug/mL
Protocol: as §1, §2

Peptide_050 [6] = biological target: T12, Peptide_050; test: peptide microarray, 0.2 ug/mL
Protocol: as §1, §2

Peptide_052 [7] = biological target: T13, Peptide_052; test: peptide microarray, 0.2 ug/mL
Protocol: as §1, §2

Peptide_053 [8] = biological target: T14, Peptide_053; test: peptide microarray, 0.2 ug/mL
Protocol: as §1, §2

Peptide_054 [9] = biological target: T15, Peptide_054; test: peptide microarray, 0.2 ug/mL
Protocol: as §1, §2

Peptide_055 [10] = biological target: T16, Peptide_055; test: peptide microarray, 0.2 ug/mL
Protocol: as §1, §2

Peptide_056 [11] = biological target: T17, Peptide_056; test: peptide microarray, 0.2 ug/mL
Protocol: as §1, §2

Peptide_057 [12] = biological target: T18, Peptide_057; test: peptide microarray, 0.2 ug/mL
Protocol: as §1, §2

Peptide_046 [13] = biological target: T8, Peptide_046; test: peptide microarray, 0.04 ug/mL
Protocol: as §1, §2

Peptide_047 [14] = biological target: T9, Peptide_047; test: peptide microarray, 0.04 ug/mL
Protocol: as §1, §2

Peptide_048 [15] = biological target: T10, Peptide_048; test: peptide microarray, 0.04 ug/mL
Protocol: as §1, §2

Peptide_049 [16] = biological target: T11, Peptide_049; test: peptide microarray, 0.04 ug/mL
Protocol: as §1, §2

Peptide_050 [17] = biological target: T12, Peptide_050; test: peptide microarray, 0.04 ug/mL
Protocol: as §1, §2

Peptide_052 [18] = biological target: T13, Peptide_052; test: peptide microarray, 0.04 ug/mL
Protocol: as §1, §2

Peptide_053 [19] = biological target: T14, Peptide_053; test: peptide microarray, 0.04 ug/mL
Protocol: as §1, §2

Peptide_054 [20] = biological target: T15, Peptide_054; test: peptide microarray, 0.04 ug/mL
Protocol: as §1, §2

Peptide_055 [21] = biological target: T16, Peptide_055; test: peptide microarray, 0.04 ug/mL
Protocol: as §1, §2

Peptide_056 [22] = biological target: T17, Peptide_056; test: peptide microarray, 0.04 ug/mL
Protocol: as §1, §2

Peptide_057 [23] = biological target: T18, Peptide_057; test: peptide microarray, 0.04 ug/mL
Protocol: as §1, §2

Peptide_047 [24] = biological target: T9, Peptide_047; test: peptide microarray, 0.0016 ug/mL
Protocol: as §1, §2

Peptide_049 [25] = biological target: T11, Peptide_049; test: peptide microarray, 0.0016 ug/mL
Protocol: as §1, §2

Peptide_050 [26] = biological target: T12, Peptide_050; test: peptide microarray, 0.0016 ug/mL
Protocol: as §1, §2

Peptide_054 [27] = biological target: T15, Peptide_054; test: peptide microarray, 0.0016 ug/mL
Protocol: as §1, §2

Peptide_055 [28] = biological target: T16, Peptide_055; test: peptide microarray, 0.0016 ug/mL
Protocol: as §1, §2

Peptide_056 [29] = biological target: T17, Peptide_056; test: peptide microarray, 0.0016 ug/mL
Protocol: as §1, §2

Peptide_057 [30] = biological target: T18, Peptide_057; test: peptide microarray, 0.0016 ug/mL
Protocol: as §1, §2

Peptide_004 = biological target: T19, Peptide_004; test: peptide microarray, 1 ug/mL
Protocol: as §1, §2

Peptide_005 = biological target: T20, Peptide_005; test: peptide microarray, 1 ug/mL
Protocol: as §1, §2

Kd [1] [nM] | signal (blank-control = 1) (Peptide_046 [2]) | signal (blank-control = 1) (Peptide_047 [3]) | signal (blank-control = 1) (Peptide_048 [4]) | signal (blank-control = 1) (Peptide_049 [5]) | signal (blank-control = 1) (Peptide_050 [6]) | signal (blank-control = 1) (Peptide_052 [7]) | signal (blank-control = 1) (Peptide_053 [8]) | signal (blank-control = 1) (Peptide_054 [9]) | signal (blank-control = 1) (Peptide_055 [10]) | signal (blank-control = 1) (Peptide_056 [11]) | signal (blank-control = 1) (Peptide_057 [12]) | signal (blank-control = 1) (Peptide_046 [13]) | signal (blank-control = 1) (Peptide_047 [14]) | signal (blank-control = 1) (Peptide_048 [15]) | signal (blank-control = 1) (Peptide_049 [16]) | signal (blank-control = 1) (Peptide_050 [17]) | signal (blank-control = 1) (Peptide_052 [18]) | signal (blank-control = 1) (Peptide_053 [19]) | signal (blank-control = 1) (Peptide_054 [20]) | Binder | also measured
0.17 | 3.44 | 2.52 | 4.61 | 1.34 | 0.46 | 2.56 | 4.75 | 0.89 | 2.21 | 1.72 | 2.08 | 2.87 | 1.97 | 6.34 | 1.48 | 0.64 | 2.02 | 2.54 | 0.99 | monoclonal antibody B264 (antibody, mouse IgG1, kappa, V domains shown, also called AB264; B264 (Trx1-mIgG1)) VH: QVQLQQSGAELARPGASVKMSCKASGYTFTSYTMHWVKQRPGQGLEWIGYINPTSDYTNYNQKFKDKATLTADKSSSTAYMQLSSLTSEDSAVYFCASEGGFLYYFDYWGQGTTLTVSS VL: DVLMTQTPLSLPVSLGDQASISCRSSQSIVHSNGNTYLEWYLQKPGQSPKLLIYKVSNRFSGVPDRFSGSGSGTDFTLKISRVEAEDLGVYYCFQGSHVPYTFGGGTKLEIKR | signal (blank-control = 1) (Peptide_013): 4.05; signal (blank-control = 1) (Peptide_015): 5.11; signal (blank-control = 1) (Peptide_023): 1.19; signal (blank-control = 1) (Peptide_025): 7.24; signal (blank-control = 1) (Peptide_045): 5.11; signal (blank-control = 1) (Peptide_092): 9.76; reaction value (OD 490) relative to B266-1 [1]: ~50%; signal (blank-control = 1) (Peptide_055 [21]): 1.51; signal (blank-control = 1) (Peptide_056 [22]): 1.35; signal (blank-control = 1) (Peptide_057 [23]): 2.15; signal (blank-control = 1) (Peptide_047 [24]): 1.15; signal (blank-control = 1) (Peptide_049 [25]): 1.18; signal (blank-control = 1) (Peptide_050 [26]): 0.51; signal (blank-control = 1) (Peptide_054 [27]): 0.55; signal (blank-control = 1) (Peptide_055 [28]): 0.81; signal (blank-control = 1) (Peptide_056 [29]): 0.99; signal (blank-control = 1) (Peptide_057 [30]): 1.73
0.21 | 2 | 1.58 | 5.99 | 1.45 | 0.65 | 1.38 | 1.66 | 0.84 | 1.04 | 1.24 | 1.94 | 1.96 | 1.5 | 6.57 | 1.51 | 0.68 | 1.23 | 1.35 | 0.71 | monoclonal antibody B266-1 (antibody, human IgG1, B266 with the Fc part changed to human IgG1; also called B266-1 (Trx1-hIgG1); B266-1 (hTrx1-hIgG1)) light: QIVLTQSPAIMSASPGEKVTMTCSASSRISYMYWYQQKPGTSPKRWIYDTSKLASGVPARFSGSGSGTSYSLTISTMEAEDAATYYCHQRSSYPTFGAGTKLELKSVAAPSVFIFPPSDEQLKSGTASVVCLLNNFYPREAKVQWKVDNALQSGNSQESVTEQDSKDSTYSLSSTLTLSKADYEKHKVYACEVTHQGLSSPVTKSFNRGEC heavy: not shown | signal (blank-control = 1) (Peptide_004): 2.71; signal (blank-control = 1) (Peptide_005): 3.58; signal (blank-control = 1) (Peptide_055 [21]): 1.41; signal (blank-control = 1) (Peptide_056 [22]): 1.11; signal (blank-control = 1) (Peptide_057 [23]): 1.87; signal (blank-control = 1) (Peptide_047 [24]): 1.18; signal (blank-control = 1) (Peptide_049 [25]): 1.37; signal (blank-control = 1) (Peptide_050 [26]): 0.62; signal (blank-control = 1) (Peptide_054 [27]): 0.73; signal (blank-control = 1) (Peptide_055 [28]): 1.05; signal (blank-control = 1) (Peptide_056 [29]): 1.18; signal (blank-control = 1) (Peptide_057 [30]): 1.93
